Assay [1] in a line: In vitro sialylation of LNT by protein extracts, LST-a/-b quantified by LC-MS/MS. The assay is classed as biochemical. The following applies: 5 mM LNT, 10 mM CMP-Neu5Ac, 16 hours, LC-MS/MS; relative quantity; n.d.: not detectable. Summed up: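 E. coli BL21(DE3) crude extracts overexpressing sialyltransferases (IPTG 0.3 mM, 12–16 h at 30 °C) incubated 16 h with 5 mM LNT and 10 mM CMP-Neu5Ac in 50 mM Tris-HCl pH 7.5, 5 mM MgCl2. LST-a and LST-b measured by HILIC LC-MS/MS, MRM in ESI negative mode, against commercial standards.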

A short description of assay [2]: In vivo screening in E. coli #1363/#1730 with lactose as acceptor, sialyllactose identified by TLC. It is filed as cell-based, Escherichia coli BL21(DE3). The following applies: 1.5 mM lactose, 72 to 96 hours, qualitative via TLC. The method, boiled down:
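E. coli BL21(DE3) #1363/#1730 expressing sialyltransferases were grown at 30 °C in mineral salts medium with 2% glucose and induced with 0.3 mM IPTG. After 1 h, 1.5 mM lactose was added, plus 1.5 mM sialic acid for #1730, and incubation ran 72–96 h. Cell lysates were analysed by silica TLC with thymol staining.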

B1: SiaT34: sialyltransferase of Pasteurella multocida PM70, acc. NC_002663, SEQ ID NO: 6 (protein, listed as Pasteurella multocida)
chain: MDKFAEHEIPKAVIVAGNGESLSQIDYRLLPKNYDVFRCNQFYFEERYFLGNKIKAVFFTPGVFLEQYYTLYHLKRNNEYFVDNVILSSFNHPTVDLEKSQKIQALFIDVINGYEKYLSKLTAFDVYLRYKELYENQRITSGVYMCAVAIAMGYTDIYLTGIDFYQASEENYAFDNKKPNIIRLLPDFRKEKTLFSYHSKDIDLEALSFLQQHYHVNFYSISPMSPLSKHFPIPTVEDDCETTFVAPLKENYINDILLPPHFVYEKLGVDKLAAALEHHHHHH
Turning to B1, the “Relative efficacy of sialyltransferases regarding in-vitro production of sialyllacto-N-tetraoses: LST-a” value (“Relative efficacy” below) in assay [1] is recorded as 2.34 × 10^3. In addition, the “Production of sialyllactose in-vivo” value in assay [2] is listed as 3′-SL.

B2: SiaT42: sialyltransferase of Actinobacillus capsulatus DSM 19761, acc. WP_018652686, SEQ ID NO: 25 (protein, listed as Actinobacillus capsulatus)
chain: MERIPQLQAVDIYIDFATIPSLSYFLHFLKHKHDHQRLRLFSLARFEMPQTVIEQYEGIIQFSRNVEHNVEQLLEQLQTILSQEGKQFELHLHLNLFHSFEMFLNLSPTYTKYKEKISKIVLHLYDDGSEGVMKQYQLQQSNSLAQDLASTKASLVSLFKNGEGAFSQIDLIRYVWNAVLETHYYLLSDHFLAHEKLQPLKIELGHYQLLNLSAYQYLSSEDLLWLKQILKIDAELESLMHKLTTQPVYFFSGTTFFNISFEDKQRLANIHAILIREHLDPNSQLFIGEPYLFVFKGHPNSPEINQALREYYPNAIFLPENIPFEILTLLGFSPQKIGGFASTIHVNSEQSKLAKLFFLTSTDEQERNRSDGYIKQYALAQAMLEMQLVSQEQVYYCSLSS
In the case of B2, in assay [1], the “Relative efficacy” value was 3. Besides, in assay [2], the “Production of sialyllactose in-vivo” value is 3′-SL.

B3: SiaT37: sialyltransferase of Campylobacter jejuni strain 81-176, acc. AAL09368, SEQ ID NO: 16 (protein, listed as Campylobacter jejuni)
chain: MKKVIIAGNGPSLKEIDYSRLPNDFDVFRCNQFYFEDKYYLGKKCKAVFYTPNFFFEQYYTLKHLIQNQEYETELIMCSNYNQAHLENENFVKTFYDYFPDAHLGYDFFKQLKEFNAYFKFHEIYFNQRITSGVYMCAVAIALGYKEIYLSGIDFYQNGSSYAFDTKQENLLKLAPDFKNDRSHYIGHSKNTDIKALEFLEKTYKIKLYCLCPNSLLANFIELAPNLNSNFIIQEKNNYTKDILIPSSEAYGKFSKNINFKKIKIKENVYYKLIKDLLRLPSDIKHYFKGK
In the case of B3, the “Relative efficacy” value in assay [1] amounted to 40. The “Production of sialyllactose in-vivo” value in assay [2] is reported as 3′-SL.

B4: SiaT30: sialyltransferase of Haemophilus parahaemolyticus HK385, acc. EIJ71207, SEQ ID NO: 19 (protein, listed as Haemophilus parahaemolyticus)
chain: MTEQYIKNVEVYLDYATIPTLNYFYHFTENKDDIATIRLFGLGRFNISKSIIESYPEGIIRYCPIIFEDQTAFQQLFITLLTEDSFCQYRFNFHINLFHSWKMLIPLLHIIWQFKHKVLDIKLNFYDDGSEGLVTLSKIEQNYSSEILQKIIDIDSQSFYADKLSFLDEDIARYLWNSLFESHYYLLNDFLLKNEKLSLLKNSIKYCHIMDLERYLQFTQEEKDFFNELLGINIQSLEDKIKIFQQKKTFIFTGTTIFSLPKEEEETLYRLHLNAILNYIHPNGKYFIGDGFTLVIKGHPHQKEMNSRLEKSFEKAVMLPDNIPFEILYLIGCKPDKIGGFVSTSYFSCDKKNIADLLFISARQEEVRKNDYLFNIQYQLRDMMIKTGFIQEEKTHFYSDIPIFIS
With B4, the “Relative efficacy” value in assay [1] came out at 17. Besides, the “Production of sialyllactose in-vivo” value in assay [2] is given as 3′-SL.

B5: SiaT43: sialyltransferase of Bibersteinia trehalosi USDA-ARS-USMARC-189, acc. AHG84654, SEQ ID NO: 18 (protein, listed as Bibersteinia trehalosi)
chain: MEFCKMATTQKICVYLDYATIPSLNYILHFAQHFEDQETIRLFGLSRFHIPESVIQRYPKGVVQFYPNQEKDFSALLLALKNILIEVKQQQRKCEIELHLNLFHYQLLLLPFLSLYLDTQDYCHLTLKFYDDGSEAISALQELALAPDLAAQIQFEKQQFDELVVKKSFKLSLLSRYFWGKLFESEYIWFNQAILQKAELQILKQEISSSRQMDFAIYQQMSDEQKQLVLEILNIDLNKVAYLKQLMENQPSFLFLGTTLFNITQETKTWLMQMHVDLIQQYCLPSGQFFNNKAGYLCFYKGHPNEKEMNQMILSQFKNLIALPDDIPLEILLLLGVIPSKVGGFASSALFNFTPAQIENIIFFTPRYFEKDNRLHATQYRLMQGLIELGYLDAEKSVTHFEIMQLLTKE
Take B5: the “Relative efficacy” value in assay [1] stood at 21. Besides, the “Production of sialyllactose in-vivo” value in assay [2] is given as 3′-SL.

B6: SiaT39: sialyltransferase of Alistipes shahii WAL 8301, acc. YP_007816735, SEQ ID NO: 23 (protein, listed as Alistipes shahii)
chain: MDDGTPSVSINGGTDFLSLDHLARSGKITVNAPAPWSVTLAPENYGQDEKPDWLTLSAEEGPAGYSEIDVTFAENPGPARSASLLFSCDGKTLAFTVSQSAGGTGFDAPDYYFYISVGTMPTLYSGLHLLSHDKPSYVSYERASTFDAAEFPDRAFVYPVADPTGHATNEELRAMSEAMKRRILEINAEDPTAVFGLWVDDLRCRLGYDWFVAQGIDSARVKVTMLSDGTATYNNFHNYFGDAATAEQNWNDYAAEVEALDWNHGGRYPETRAPEEFASYTWPYYLSTRPDYRLMLQNSSLMESSCPFIADRLAAMKMESVQPYELLTALPEASKQQFYRMAKFDYARFAGLFDLSPKKNLIIIGTSHSSAASEQQQAAYVERIIQQYGSDYDIFFKPHPADSSSAGYPDRFEGLTLLPGQMPFEIFVWALLDKIDMIGGYPSTTFISVPLDKVGFLFAADADGLVRPLNILFRDAANVEWIQ
Consider B6, for which the “Relative efficacy” value in assay [1] was 4. In addition, in assay [2], the “Production of sialyllactose in-vivo” value is given as 3′-SL.

B7: SiaT31: sialyltransferase of Alistipes sp. CAG:268, acc. CDC95697, SEQ ID NO: 22 (protein, listed as Alistipes sp.)
chain: MASCSDDDKEQTGFQIDDGSGFLSLDAAARSGSIAITANNSWSVTQDKDSEWLTLSTTSGAAGRTEIGIMLEANPGEARNAGLTFNSGGRTYPFVITQSAHVTADFDDADHCFYITFGTLPTLYAGLHVLSHDKPSYVFFQRSQTFRPEEFPAHAEVTIAADPSANATDEDMERMRTAMKQQILKINVEDPTAVFGLYVDDLRCGIGYDWFVAQGIDSTRVKVSMLSDGTGTYNNFYNYFGDPATAEQNWENYAAQVEALDWQHGGRFPETRMPDGFDFYEWPYYLATRPNYRLVLQDDDLLEATSPFMTERLQQMRTESKQPYELLASLPAEARQRFFRMAGFDYDAFAALFDASPKKNLVIIGTSHTSEESEAQQAAYVERIIGDYGTAYDIFFKPHPADSSSSNYEERFEGLTLLPGQMPFEIFVWSLLDKVDLIGGYSSTVFLTVPVEKTGFIFAANAESLPRPLNVLFRNAEHVRWIQ
For the molecule B7, the “Relative efficacy” value in assay [1] amounted to 4. Besides, the “Production of sialyllactose in-vivo” value in assay [2] was 3′-SL.

B8: SiaT41: sialyltransferase of Actinobacillus suis ATCC 33415, acc. AIJ32009, SEQ ID NO: 24 (protein, listed as Actinobacillus suis)
chain: MERTPQLQAVDIYIDFATIPSLSYFLHFLKHKHDDQRLRLFSLARFEMPQTLIEQYEGIIQFSRNVEHNVEPLLEQLQTILSQEGKQFELHLHLNLFHSFEMFLNLSPTYTQYKEKISKIVLHLYDDGSEGVMKQYQLQKSSSLVQDLAATKASLVSLFENGEGSFSQIDLIRYVWNAVLETHYYLLSDHFLLDEKLQPLKAELGHYQLLNLSAYQYLSSEDLLWLKQILKIDTELESLMQKLTAQPVYFFSGTTFFNISFEDKQRLANIHAILIREHLDPNSQLFIGEPYLFVFKGHPNSPEINQALREYYPNVIFLPENIPFEILTLLGFSPQKIGGFASTIHVNSEQSKLAKLFFLTSTDEQERQLSDGYIKQYALAQAMLEMQLVSQEQVYYCSLSS
With B8, the “Relative efficacy” value in assay [1] turned out to be 3. Also, the “Production of sialyllactose in-vivo” value in assay [2] is 3′-SL.

B9: SiaT32: sialyltransferase of Alistipes sp. AL-1, acc. WP_032134786, SEQ ID NO: 15 (protein, listed as Alistipes sp.)
chain: MALLSGTAACSDDEVSQNLIVINGGEHFLSLDGLARAGKISVLAPAPWRVTKAAGDTWFRLSATEGPAGYSEVELSLDENPGAARSAQLAFACGDAIVPFRLSQGALSAGYDSPDYYFYVTFGTMPTLYAGIHLLSHDKPGYVFYSRSKTFDPAEFPARAEVTTAADRTADATQAEMEAMAREMKRRILEINSADPTAVFGLYVDDLRCRIGYDWFVAQGIDSARVKVSMLSDGTGTYNNFYNYFGDAATAEQNWESYASEVEALDWNHGGRYPETRSLPEFESYTWPYYLSTRPDYRLVVQDGSLLESSCPFITEKLGEMEIESIQPYEMLSALPESSRKRFYDMAGFDYDKFAALFDASPKKNLIIIGTSHADDASARLQRDYVARIMEQYGAQYDVFFKPHPADTTSAGYETEFPGLTLLPGQMPFEIFVWSLIDRVDMIGGYPSTVFLTVPVDKVRFIFAADAASLVRPLNILFRDATDVEWMQ
As for B9, the “Relative efficacy” value in assay [1] worked out at 64. Besides, the “Production of sialyllactose in-vivo” value in assay [2] is 3′-SL, 6′-SL.

The values above are taken from patent publication US12692524B2, “Sialyltransferases and their use in producing sialylated oligosaccharides” (Chr. Hansen A/S, priority 2017, dated 2026).
